Measured values taken from patent US20220073594A1 (NEWSOARA BIOPHARMA, published 2022).
Positions count from the first letter of the chain named.

B1: Antibody 15A7 (antibody, V domains shown)
VH: QVQLVQSGAEVKKPGASVKVSCKASGYTFTSYDINWVRQASGQGLEWMGWMNPNSANPGYAQKFQGRVTMTRNTSISTAFMELSSLRSDDTAVYYCARARVTIHYDILTGYYSNAFDIWGQGTMVAVSS
VL: DIQMTQSPSSLSASVGDRVTITCRASQTISSYLNWYQQKPGKAPKLLIYAASSLQSGVPSRFSGSGSGADFTLTISSLQPEDFATYYCQQSYTTFMYTFGQGTMLEIK
B2: Antibody 37G2 (antibody, V domains shown)
VH: QVQLVQSGAEVKKPGSSVKVSCKASGGTFSSYAITWVRQAPGQGLEWMGGIIPIFGTANFAQKFQGRVTITADESTSTAYMELSSLRSEDTAVYYCAHLGGFADPFDYWGQGTLVTVSS
VL: EIVLTQSPATLSLSPGERATLSCRASQSVSNYLAWYQQKAGQAPRVLIYDAFNRATGIPARFSGSGSGTDFTLTISSLEPEDFAVYYCQQRSNWPPRITFGQGTRLEIK
B3: Antibody 31C2 (antibody, V domains shown)
VH: QVQLVQSGAEVKKPGSSVKVSCKASGGTFSSYAISWVRQAPGQGLEWMGGIIPIFGTTNYAQKFQGRVTITADESTSTAYMELNSLRSEDTAVYYCAGRSAYGDKGYYFDYWGQGTLVTVSS
VL: B2 VL with Y32F, A40P, V46L, F52S, E79Q, R97Q, I98E, R105K, L106V

Columns and labels:
[1] = biological target: SARS-CoV-2 spike protein (S protein) (SARS-CoV-2, UniProt P0DTC2 16-1213); experiment: ELISA, coated S protein, antibody at 1 ug/mL
Protocol: (§1) Polystyrene microplates (Corning) were coated overnight with 0.1 or 1 μg/mL of SARS-CoV-2 S, S1 or RBD protein (Sino Biological). After washing with PBS containing 0.2% Tween 20, the plates were blocked using 2% BSA (Sigma Aldrich) in PBST for 1 hour at 37° C. Following washing with PBST, testing antibodies (1 ug/mL) were added to each well and incubated at 37° C. for 1 hour. After washing with PBST, HRP-conjugated goat anti-human IgG antibody was added at the dilution of 1:5000 and incubated at 37° C. for 1 hour. After washing, 3,3′,5,5′-Tetramethylbenzidine (TMB) substrate solution was added to the microplate and incubated at room temperature for 6 min, followed by adding 2M H₂SO₄ to stop the reaction. The absorbance was detected at 450 nm.

[2] = biological target: SARS-CoV-2 RBD protein (receptor-binding domain of the spike protein) (SARS-CoV-2, UniProt P0DTC2 319-541); experiment: ELISA, coated RBD protein, antibody at 1 ug/mL
Protocol: as §1

SARS-CoV-2 S1 subunit = biological target: T1, SARS-CoV-2 S1 subunit (SARS-CoV-2, UniProt P0DTC2 16-685); experiment: ELISA, coated S1 protein, antibody at 1 ug/mL
T1 construct: domain: S1 subunit
Protocol: as §1

Row | Binder | binding result [1] | binding result [2] | binding result (SARS-CoV-2 S1 subunit)
1 | B1 | binds | binds | binds
2 | B2 |  |  | no binding (tested: 1 ug/mL)
3 | B3 |  |  | no binding (tested: 1 ug/mL)
